Measured values as given in the supplement of paper PMC10065799, “High-throughput profiling of sequence recognition by tyrosine kinases and SH2 domains using bacterial peptide display” (eLife, 2023).
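Also: 11-residue human phosphosite peptides and single-mutation variants displayed on the E. coli surface, counted by deep sequencing, each peptide's frequency after selection divided by its frequency in the unselected input library; frequency after pTyr selection over input frequency; kinase dosed for 20-30% of maximal phosphorylation in three min.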

What follows are sequences tested against MERTK (UniProt Q12866) (assay: phosphorylation enrichment, bacterial display (enrichment ratio); higher = better substrate or ligand; peptides without Tyr show the background).
Chain of MERTK (Q12866 whole entry, looked up): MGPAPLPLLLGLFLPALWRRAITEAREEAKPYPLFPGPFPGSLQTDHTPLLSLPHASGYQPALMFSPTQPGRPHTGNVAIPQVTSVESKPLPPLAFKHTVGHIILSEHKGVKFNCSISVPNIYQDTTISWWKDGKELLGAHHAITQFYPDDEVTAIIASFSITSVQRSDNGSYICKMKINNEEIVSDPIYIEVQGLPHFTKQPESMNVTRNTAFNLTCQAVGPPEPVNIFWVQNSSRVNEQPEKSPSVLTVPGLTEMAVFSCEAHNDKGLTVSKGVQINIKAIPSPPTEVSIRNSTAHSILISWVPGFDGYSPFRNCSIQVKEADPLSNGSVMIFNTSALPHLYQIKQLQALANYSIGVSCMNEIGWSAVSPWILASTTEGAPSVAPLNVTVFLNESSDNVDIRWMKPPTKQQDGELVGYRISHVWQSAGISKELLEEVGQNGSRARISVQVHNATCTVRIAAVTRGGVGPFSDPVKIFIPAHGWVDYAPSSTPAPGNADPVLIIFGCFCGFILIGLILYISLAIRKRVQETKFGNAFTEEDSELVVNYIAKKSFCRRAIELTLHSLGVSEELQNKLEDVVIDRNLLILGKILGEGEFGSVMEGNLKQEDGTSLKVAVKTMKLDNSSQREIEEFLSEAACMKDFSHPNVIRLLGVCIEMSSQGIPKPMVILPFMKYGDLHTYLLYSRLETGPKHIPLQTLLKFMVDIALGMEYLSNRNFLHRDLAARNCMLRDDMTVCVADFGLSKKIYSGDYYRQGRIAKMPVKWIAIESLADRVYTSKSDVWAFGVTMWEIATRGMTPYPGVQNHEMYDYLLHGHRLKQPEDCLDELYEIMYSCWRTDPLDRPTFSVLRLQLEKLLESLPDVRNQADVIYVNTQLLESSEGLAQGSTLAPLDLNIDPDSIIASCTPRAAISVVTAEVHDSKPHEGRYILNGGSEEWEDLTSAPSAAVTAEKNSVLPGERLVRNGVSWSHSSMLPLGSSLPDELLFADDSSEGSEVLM
EMQAAYQKVVA [HBD_Y131_Q126E] gave a phosphorylation enrichment of 0.399. Work on NKYTTYLPWLP [C9orf24_Y126_R129W] yielded a phosphorylation enrichment of 3.37. In the case of AIMSFYAALIN [RYR1_Y2426_D2431N], the phosphorylation enrichment is reported as 1.09. Work on YMRGMYFRMKD [PLA2G6_Y541] yielded a phosphorylation enrichment of 0.439. Sequence TSYSGYRYHRH [NKAPL_Y94] has a phosphorylation enrichment of 0.382. Sequence FRDALYKSMVD [PHEX_Y250_F252S_YF] has a phosphorylation enrichment of 0.484. With RVQKRYIFDNV [RCN1_Y115] the phosphorylation enrichment was 0.422. Sequence HPFHVYPQPGM [BAG3_Y114] has a phosphorylation enrichment of 0.585. VQNIVYHTASI [CYP39A1_Y102_R103H] gave a phosphorylation enrichment of 0.376. For RPSRWYQFRVA [ANOS1_Y259], the phosphorylation enrichment was 0.699. Work on KKHFSYAWPFF [BRDT_Y291_YF] yielded a phosphorylation enrichment of 1.64. Work on CRPPYYHRNCM [HGD_Y334_F329C] yielded a phosphorylation enrichment of 0.515. Sequence KFMVGYEMLAQ [GALT_Y339] has a phosphorylation enrichment of 0.343. In the case of LKLWDYRRGRC [WDR5B_Y239_S240R], the phosphorylation enrichment is reported as 0.708. LAARYYNWVCF [FLT4_Y1231_S1235C] was tested, and the phosphorylation enrichment was 1.04. Work on FFSSEYHCVGG [CTSC_Y345_Y347C_YF] yielded a phosphorylation enrichment of 0.651.

Each sequence was assayed against Hck (UniProt P08631) in the same assay as above.
Chain of Hck (P08631 whole entry, looked up): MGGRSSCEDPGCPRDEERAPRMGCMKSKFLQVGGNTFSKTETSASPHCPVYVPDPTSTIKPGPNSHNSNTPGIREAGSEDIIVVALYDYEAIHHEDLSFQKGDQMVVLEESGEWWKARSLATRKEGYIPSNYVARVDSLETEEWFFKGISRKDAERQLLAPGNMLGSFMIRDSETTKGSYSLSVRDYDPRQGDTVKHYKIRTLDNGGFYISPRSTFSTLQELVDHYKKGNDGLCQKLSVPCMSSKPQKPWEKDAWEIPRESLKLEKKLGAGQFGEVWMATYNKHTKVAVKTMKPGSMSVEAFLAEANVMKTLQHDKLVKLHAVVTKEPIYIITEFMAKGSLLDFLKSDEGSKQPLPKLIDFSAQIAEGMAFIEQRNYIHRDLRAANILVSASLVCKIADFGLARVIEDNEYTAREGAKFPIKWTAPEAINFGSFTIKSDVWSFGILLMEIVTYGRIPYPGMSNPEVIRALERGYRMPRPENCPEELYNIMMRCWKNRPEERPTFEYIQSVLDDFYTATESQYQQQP
Work on EMQAAYQKVVA [HBD_Y131_Q126E] yielded a phosphorylation enrichment of 0.535. With NKYTTYLPWLP [C9orf24_Y126_R129W] the phosphorylation enrichment was 8.09. AIMSFYAALIN [RYR1_Y2426_D2431N] was tested, and the phosphorylation enrichment was 0.764. YMRGMYFRMKD [PLA2G6_Y541] showed a phosphorylation enrichment of 0.44. For TSYSGYRYHRH [NKAPL_Y94], the phosphorylation enrichment was 0.628. FRDALYKSMVD [PHEX_Y250_F252S_YF] was tested, and the phosphorylation enrichment was 0.476. For RVQKRYIFDNV [RCN1_Y115], the phosphorylation enrichment was 0.328. With HPFHVYPQPGM [BAG3_Y114] the phosphorylation enrichment was 0.684. VQNIVYHTASI [CYP39A1_Y102_R103H] showed a phosphorylation enrichment of 0.543. With RPSRWYQFRVA [ANOS1_Y259] the phosphorylation enrichment was 0.642. Sequence KKHFSYAWPFF [BRDT_Y291_YF] has a phosphorylation enrichment of 0.428. CRPPYYHRNCM [HGD_Y334_F329C] was tested, and the phosphorylation enrichment was 0.761. KFMVGYEMLAQ [GALT_Y339] gave a phosphorylation enrichment of 0.526. With LKLWDYRRGRC [WDR5B_Y239_S240R] the phosphorylation enrichment was 0.541. Sequence LAARYYNWVCF [FLT4_Y1231_S1235C] has a phosphorylation enrichment of 0.588. Sequence FFSSEYHCVGG [CTSC_Y345_Y347C_YF] has a phosphorylation enrichment of 1.66.

Each sequence was assayed on Fer (mouse) in the same assay as above.
EMQAAYQKVVA [HBD_Y131_Q126E] gave a phosphorylation enrichment of 0.446. Sequence NKYTTYLPWLP [C9orf24_Y126_R129W] has a phosphorylation enrichment of 9.65. Sequence AIMSFYAALIN [RYR1_Y2426_D2431N] has a phosphorylation enrichment of 0.672. YMRGMYFRMKD [PLA2G6_Y541] gave a phosphorylation enrichment of 0.423. With TSYSGYRYHRH [NKAPL_Y94] the phosphorylation enrichment was 0.418. FRDALYKSMVD [PHEX_Y250_F252S_YF] was tested, and the phosphorylation enrichment was 0.488. In the case of RVQKRYIFDNV [RCN1_Y115], the phosphorylation enrichment is reported as 0.381. Sequence HPFHVYPQPGM [BAG3_Y114] has a phosphorylation enrichment of 0.499. VQNIVYHTASI [CYP39A1_Y102_R103H] showed a phosphorylation enrichment of 0.386. RPSRWYQFRVA [ANOS1_Y259] was tested, and the phosphorylation enrichment was 1.03. With KKHFSYAWPFF [BRDT_Y291_YF] the phosphorylation enrichment was 0.487. In the case of CRPPYYHRNCM [HGD_Y334_F329C], the phosphorylation enrichment is reported as 0.458. KFMVGYEMLAQ [GALT_Y339] was tested, and the phosphorylation enrichment was 0.511. In the case of LKLWDYRRGRC [WDR5B_Y239_S240R], the phosphorylation enrichment is reported as 0.605. LAARYYNWVCF [FLT4_Y1231_S1235C] showed a phosphorylation enrichment of 1.39. In the case of FFSSEYHCVGG [CTSC_Y345_Y347C_YF], the phosphorylation enrichment is reported as 0.545.

Each sequence was assayed on c-Src in the same assay as above.
EMQAAYQKVVA [HBD_Y131_Q126E] gave a phosphorylation enrichment of 0.391. Work on NKYTTYLPWLP [C9orf24_Y126_R129W] yielded a phosphorylation enrichment of 4.72. AIMSFYAALIN [RYR1_Y2426_D2431N] showed a phosphorylation enrichment of 0.497. Work on YMRGMYFRMKD [PLA2G6_Y541] yielded a phosphorylation enrichment of 0.384. TSYSGYRYHRH [NKAPL_Y94] was tested, and the phosphorylation enrichment was 0.555. FRDALYKSMVD [PHEX_Y250_F252S_YF] showed a phosphorylation enrichment of 0.365. For RVQKRYIFDNV [RCN1_Y115], the phosphorylation enrichment was 0.394. In the case of HPFHVYPQPGM [BAG3_Y114], the phosphorylation enrichment is reported as 0.465. VQNIVYHTASI [CYP39A1_Y102_R103H] showed a phosphorylation enrichment of 0.636. With RPSRWYQFRVA [ANOS1_Y259] the phosphorylation enrichment was 0.756. KKHFSYAWPFF [BRDT_Y291_YF] was tested, and the phosphorylation enrichment was 0.529. CRPPYYHRNCM [HGD_Y334_F329C] gave a phosphorylation enrichment of 0.452. For KFMVGYEMLAQ [GALT_Y339], the phosphorylation enrichment was 0.382. For LKLWDYRRGRC [WDR5B_Y239_S240R], the phosphorylation enrichment was 0.672. LAARYYNWVCF [FLT4_Y1231_S1235C] was tested, and the phosphorylation enrichment was 0.512. With FFSSEYHCVGG [CTSC_Y345_Y347C_YF] the phosphorylation enrichment was 2.1.

What follows are sequences tested against FGFR1 (UniProt P11362) in the same assay as above.
Chain of FGFR1 (P11362 whole entry, looked up): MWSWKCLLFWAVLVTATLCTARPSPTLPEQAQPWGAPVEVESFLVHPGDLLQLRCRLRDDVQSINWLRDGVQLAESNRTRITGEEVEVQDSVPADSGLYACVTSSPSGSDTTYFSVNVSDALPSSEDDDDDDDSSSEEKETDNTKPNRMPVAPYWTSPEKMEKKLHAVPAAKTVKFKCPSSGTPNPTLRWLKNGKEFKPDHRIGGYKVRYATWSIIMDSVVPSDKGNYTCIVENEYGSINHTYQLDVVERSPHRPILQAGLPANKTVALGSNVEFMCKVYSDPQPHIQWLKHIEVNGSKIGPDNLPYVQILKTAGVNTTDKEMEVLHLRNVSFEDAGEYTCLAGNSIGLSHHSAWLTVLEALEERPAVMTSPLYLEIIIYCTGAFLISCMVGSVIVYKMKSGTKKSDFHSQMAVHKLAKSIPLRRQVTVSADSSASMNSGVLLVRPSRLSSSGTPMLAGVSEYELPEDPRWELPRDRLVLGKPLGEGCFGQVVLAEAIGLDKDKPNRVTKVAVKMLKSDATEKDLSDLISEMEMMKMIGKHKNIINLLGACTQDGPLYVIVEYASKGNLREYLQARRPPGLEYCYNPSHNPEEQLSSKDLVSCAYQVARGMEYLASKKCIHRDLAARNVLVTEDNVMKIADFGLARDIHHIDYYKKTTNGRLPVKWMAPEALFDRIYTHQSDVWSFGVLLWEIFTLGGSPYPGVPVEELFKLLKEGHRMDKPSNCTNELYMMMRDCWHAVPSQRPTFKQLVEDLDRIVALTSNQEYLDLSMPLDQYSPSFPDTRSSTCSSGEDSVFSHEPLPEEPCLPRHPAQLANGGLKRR
EMQAAYQKVVA [HBD_Y131_Q126E] was tested, and the phosphorylation enrichment was 0.405. Work on NKYTTYLPWLP [C9orf24_Y126_R129W] yielded a phosphorylation enrichment of 2.77. AIMSFYAALIN [RYR1_Y2426_D2431N] gave a phosphorylation enrichment of 0.575. Work on YMRGMYFRMKD [PLA2G6_Y541] yielded a phosphorylation enrichment of 0.462. In the case of TSYSGYRYHRH [NKAPL_Y94], the phosphorylation enrichment is reported as 0.407. Sequence FRDALYKSMVD [PHEX_Y250_F252S_YF] has a phosphorylation enrichment of 0.497. Sequence RVQKRYIFDNV [RCN1_Y115] has a phosphorylation enrichment of 0.484. HPFHVYPQPGM [BAG3_Y114] was tested, and the phosphorylation enrichment was 0.749. VQNIVYHTASI [CYP39A1_Y102_R103H] was tested, and the phosphorylation enrichment was 0.435. Work on RPSRWYQFRVA [ANOS1_Y259] yielded a phosphorylation enrichment of 0.748. KKHFSYAWPFF [BRDT_Y291_YF] showed a phosphorylation enrichment of 0.545. CRPPYYHRNCM [HGD_Y334_F329C] was tested, and the phosphorylation enrichment was 0.617. Work on KFMVGYEMLAQ [GALT_Y339] yielded a phosphorylation enrichment of 0.553. LKLWDYRRGRC [WDR5B_Y239_S240R] gave a phosphorylation enrichment of 0.681. Work on LAARYYNWVCF [FLT4_Y1231_S1235C] yielded a phosphorylation enrichment of 1.96. Work on FFSSEYHCVGG [CTSC_Y345_Y347C_YF] yielded a phosphorylation enrichment of 7.57.

Each sequence was assayed on AncSZ in the same assay as above.
Sequence EMQAAYQKVVA [HBD_Y131_Q126E] has a phosphorylation enrichment of 0.614. In the case of NKYTTYLPWLP [C9orf24_Y126_R129W], the phosphorylation enrichment is reported as 1.08. AIMSFYAALIN [RYR1_Y2426_D2431N] was tested, and the phosphorylation enrichment was 1.13. For YMRGMYFRMKD [PLA2G6_Y541], the phosphorylation enrichment was 0.924. With TSYSGYRYHRH [NKAPL_Y94] the phosphorylation enrichment was 0.52. FRDALYKSMVD [PHEX_Y250_F252S_YF] was tested, and the phosphorylation enrichment was 0.792. Work on RVQKRYIFDNV [RCN1_Y115] yielded a phosphorylation enrichment of 0.531. Sequence HPFHVYPQPGM [BAG3_Y114] has a phosphorylation enrichment of 0.873. Sequence VQNIVYHTASI [CYP39A1_Y102_R103H] has a phosphorylation enrichment of 0.605. For RPSRWYQFRVA [ANOS1_Y259], the phosphorylation enrichment was 1.22. For KKHFSYAWPFF [BRDT_Y291_YF], the phosphorylation enrichment was 1.03. CRPPYYHRNCM [HGD_Y334_F329C] gave a phosphorylation enrichment of 0.837. In the case of KFMVGYEMLAQ [GALT_Y339], the phosphorylation enrichment is reported as 0.88. With LKLWDYRRGRC [WDR5B_Y239_S240R] the phosphorylation enrichment was 0.871. In the case of LAARYYNWVCF [FLT4_Y1231_S1235C], the phosphorylation enrichment is reported as 1.37. For FFSSEYHCVGG [CTSC_Y345_Y347C_YF], the phosphorylation enrichment was 2.38.

The sequences below were run against EPHB1 (UniProt P54762) in the same assay as above.
Chain of EPHB1 (P54762 whole entry, looked up): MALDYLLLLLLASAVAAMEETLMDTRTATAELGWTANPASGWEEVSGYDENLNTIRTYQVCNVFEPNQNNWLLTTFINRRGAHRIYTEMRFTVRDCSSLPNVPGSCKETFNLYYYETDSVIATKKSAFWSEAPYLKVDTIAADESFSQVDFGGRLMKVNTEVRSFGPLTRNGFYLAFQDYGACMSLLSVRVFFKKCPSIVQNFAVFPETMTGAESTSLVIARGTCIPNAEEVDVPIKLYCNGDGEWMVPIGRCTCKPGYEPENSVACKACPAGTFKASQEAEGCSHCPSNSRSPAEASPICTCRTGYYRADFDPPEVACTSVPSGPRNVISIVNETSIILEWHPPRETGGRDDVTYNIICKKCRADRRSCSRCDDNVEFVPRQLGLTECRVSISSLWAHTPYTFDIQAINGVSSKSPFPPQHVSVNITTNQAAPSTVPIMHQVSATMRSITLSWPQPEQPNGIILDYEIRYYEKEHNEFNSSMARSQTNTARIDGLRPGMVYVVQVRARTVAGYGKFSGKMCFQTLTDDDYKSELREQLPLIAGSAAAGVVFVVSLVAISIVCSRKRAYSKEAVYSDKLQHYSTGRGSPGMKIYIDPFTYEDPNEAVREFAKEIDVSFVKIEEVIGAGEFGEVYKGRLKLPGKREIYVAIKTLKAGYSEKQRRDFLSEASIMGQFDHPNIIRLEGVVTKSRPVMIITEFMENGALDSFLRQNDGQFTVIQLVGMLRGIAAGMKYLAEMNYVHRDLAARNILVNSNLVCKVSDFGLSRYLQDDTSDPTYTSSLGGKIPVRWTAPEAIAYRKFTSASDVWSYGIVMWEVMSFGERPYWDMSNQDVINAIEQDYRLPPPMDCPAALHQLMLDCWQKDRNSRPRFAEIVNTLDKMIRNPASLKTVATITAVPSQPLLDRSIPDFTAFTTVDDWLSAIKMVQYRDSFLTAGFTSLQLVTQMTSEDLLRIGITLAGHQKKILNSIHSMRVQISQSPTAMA
For EMQAAYQKVVA [HBD_Y131_Q126E], the phosphorylation enrichment was 0.393. In the case of NKYTTYLPWLP [C9orf24_Y126_R129W], the phosphorylation enrichment is reported as 6.9. Work on AIMSFYAALIN [RYR1_Y2426_D2431N] yielded a phosphorylation enrichment of 1.14. Work on YMRGMYFRMKD [PLA2G6_Y541] yielded a phosphorylation enrichment of 0.42. Work on TSYSGYRYHRH [NKAPL_Y94] yielded a phosphorylation enrichment of 0.536. Work on FRDALYKSMVD [PHEX_Y250_F252S_YF] yielded a phosphorylation enrichment of 0.608. Sequence RVQKRYIFDNV [RCN1_Y115] has a phosphorylation enrichment of 0.291. For HPFHVYPQPGM [BAG3_Y114], the phosphorylation enrichment was 1.02. VQNIVYHTASI [CYP39A1_Y102_R103H] gave a phosphorylation enrichment of 0.375. In the case of RPSRWYQFRVA [ANOS1_Y259], the phosphorylation enrichment is reported as 0.834. KKHFSYAWPFF [BRDT_Y291_YF] gave a phosphorylation enrichment of 0.467. In the case of CRPPYYHRNCM [HGD_Y334_F329C], the phosphorylation enrichment is reported as 0.436. Work on KFMVGYEMLAQ [GALT_Y339] yielded a phosphorylation enrichment of 0.519. Work on LKLWDYRRGRC [WDR5B_Y239_S240R] yielded a phosphorylation enrichment of 0.664. LAARYYNWVCF [FLT4_Y1231_S1235C] gave a phosphorylation enrichment of 0.899. Work on FFSSEYHCVGG [CTSC_Y345_Y347C_YF] yielded a phosphorylation enrichment of 2.37.

Each sequence was assayed against Jak2 (UniProt O60674) in the same assay as above.
Chain of Jak2 (O60674 whole entry, looked up): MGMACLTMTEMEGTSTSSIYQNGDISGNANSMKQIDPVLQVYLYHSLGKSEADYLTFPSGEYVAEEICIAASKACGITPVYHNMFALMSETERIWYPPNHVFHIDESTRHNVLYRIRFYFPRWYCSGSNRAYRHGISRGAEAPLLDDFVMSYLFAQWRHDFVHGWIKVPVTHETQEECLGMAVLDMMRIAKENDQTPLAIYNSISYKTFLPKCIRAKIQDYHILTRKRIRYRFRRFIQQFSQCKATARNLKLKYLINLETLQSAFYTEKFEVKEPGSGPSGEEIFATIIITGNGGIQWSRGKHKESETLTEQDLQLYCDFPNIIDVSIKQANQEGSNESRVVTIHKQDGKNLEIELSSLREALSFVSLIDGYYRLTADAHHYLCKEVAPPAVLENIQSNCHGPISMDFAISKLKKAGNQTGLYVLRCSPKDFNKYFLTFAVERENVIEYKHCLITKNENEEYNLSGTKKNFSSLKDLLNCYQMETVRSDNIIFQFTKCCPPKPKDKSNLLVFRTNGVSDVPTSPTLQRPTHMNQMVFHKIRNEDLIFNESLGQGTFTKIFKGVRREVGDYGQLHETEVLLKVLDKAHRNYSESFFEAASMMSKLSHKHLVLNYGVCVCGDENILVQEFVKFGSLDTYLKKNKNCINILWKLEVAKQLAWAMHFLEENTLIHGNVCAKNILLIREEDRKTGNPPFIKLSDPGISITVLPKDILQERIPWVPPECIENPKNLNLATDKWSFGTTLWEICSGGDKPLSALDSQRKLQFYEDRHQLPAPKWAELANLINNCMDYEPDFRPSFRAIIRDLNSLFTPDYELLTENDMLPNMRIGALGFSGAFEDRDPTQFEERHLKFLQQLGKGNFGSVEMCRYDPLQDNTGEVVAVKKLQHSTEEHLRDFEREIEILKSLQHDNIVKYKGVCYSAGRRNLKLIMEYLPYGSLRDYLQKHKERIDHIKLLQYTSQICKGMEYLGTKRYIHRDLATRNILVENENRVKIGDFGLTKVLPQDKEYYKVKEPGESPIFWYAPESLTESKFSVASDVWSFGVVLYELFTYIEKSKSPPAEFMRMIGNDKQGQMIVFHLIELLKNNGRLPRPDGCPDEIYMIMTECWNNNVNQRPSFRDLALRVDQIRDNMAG
EMQAAYQKVVA [HBD_Y131_Q126E] gave a phosphorylation enrichment of 0.581. In the case of NKYTTYLPWLP [C9orf24_Y126_R129W], the phosphorylation enrichment is reported as 2.34. Work on AIMSFYAALIN [RYR1_Y2426_D2431N] yielded a phosphorylation enrichment of 1.06. For YMRGMYFRMKD [PLA2G6_Y541], the phosphorylation enrichment was 1.16. TSYSGYRYHRH [NKAPL_Y94] gave a phosphorylation enrichment of 0.439. Work on FRDALYKSMVD [PHEX_Y250_F252S_YF] yielded a phosphorylation enrichment of 0.897. With RVQKRYIFDNV [RCN1_Y115] the phosphorylation enrichment was 0.455. HPFHVYPQPGM [BAG3_Y114] gave a phosphorylation enrichment of 0.545. Work on VQNIVYHTASI [CYP39A1_Y102_R103H] yielded a phosphorylation enrichment of 0.621. RPSRWYQFRVA [ANOS1_Y259] gave a phosphorylation enrichment of 0.894. Sequence KKHFSYAWPFF [BRDT_Y291_YF] has a phosphorylation enrichment of 0.976. With CRPPYYHRNCM [HGD_Y334_F329C] the phosphorylation enrichment was 0.992. Work on KFMVGYEMLAQ [GALT_Y339] yielded a phosphorylation enrichment of 0.833. With LKLWDYRRGRC [WDR5B_Y239_S240R] the phosphorylation enrichment was 0.683. In the case of LAARYYNWVCF [FLT4_Y1231_S1235C], the phosphorylation enrichment is reported as 1.11. FFSSEYHCVGG [CTSC_Y345_Y347C_YF] showed a phosphorylation enrichment of 1.08.
